Experimental data: patent US20240270846A1 (published 2024)

B1: CE115HA000 Y58A one-arm antibody (antibody, human IgG1, kappa, L234A L235A, N297A, name in Kabat numbering)
heavy: QVQLVESGGGVVQPGRSLRLSCAASGFTFSNAWMHWVRQAPGKGLEWVAQIKAKSNNYATAYAESVKGRFTISRDDSKNSLYLQMNSLKTEDTAVYYCRYVHYGAYYGVDAWGQGTTVTVSSASTKGPSVFPLAPSSKSTSGGTAALGCLVKDYFPEPVTVSWNSGALTSGVHTFPAVLQSSGLYSLSSVVTVPSSSLGTQTYICNVNHKPSNTKVDKKVEPKSCDKTHTCPPCPAPEAAGGPSVFLFPPKPKDTLMISRTPEVTCVVVDVSHEDPEVKFNWYVDGVEVHNAKTKPREEQYASTYRVVSVLTVLHQDWLNGKEYKCKVSNKALPAPIEKTISKAKGQPREPQVYTLPPSRCELTKNQVSLSCAVKGFYPSDIAVEWESNGQPENNYKTTPPVLDSDGSFFLVSKLTVDKSRWQQGNVFSCSVMHEALHNHYTQKSLSLSPDYKDDDDK
chain: EPKSSDKTHTCPPCPAPELLGGPSVFLFPPKPKDTLMISRTPEVTCVVVDVSHEDPEVKFNWYVDGVEVHNAKTKPREEQYNSTYRVVSVLTVLHQDWLNGKEYKCKVSNKALPAPIEKTISKAKGQPREPQVCTLPPSRDELTKNQVSLWCLVKGFYPSDIAVEWESNGQPENNYKTTPPVLDSDGSFFLYSKLTVDKSRWQQGNVFSCSVMHEALHNRYTQKSLSLSP
light: DIVMTQSPLSLPVTPGEPASISCRSSQSLVHSNRNTYLHWYQQKPGQAPRLLIYKVSNRFSGVPDRFSGSGSGTDFTLKISRVEAEDVGVYYCGQGTQVPYTFGQGTKLEIKRTVAAPSVFIFPPSDEQLKSGTASVVCLLNNFYPREAKVQWKVDNALQSGNSQESVTEQDSKDSTYSLSSTLTLSKADYEKHKVYACEVTHQGLSSPVTKSFNRGEC
notes: one-arm antibody
B2: CE115HA000 Y59D one-arm antibody (antibody, human IgG1, kappa, L234A L235A, N297A, name in Kabat numbering)
heavy: QVQLVESGGGVVQPGRSLRLSCAASGFTFSNAWMHWVRQAPGKGLEWVAQIKAKSNNYATYDAESVKGRFTISRDDSKNSLYLQMNSLKTEDTAVYYCRYVHYGAYYGVDAWGQGTTVTVSSASTKGPSVFPLAPSSKSTSGGTAALGCLVKDYFPEPVTVSWNSGALTSGVHTFPAVLQSSGLYSLSSVVTVPSSSLGTQTYICNVNHKPSNTKVDKKVEPKSCDKTHTCPPCPAPEAAGGPSVFLFPPKPKDTLMISRTPEVTCVVVDVSHEDPEVKFNWYVDGVEVHNAKTKPREEQYASTYRVVSVLTVLHQDWLNGKEYKCKVSNKALPAPIEKTISKAKGQPREPQVYTLPPSRCELTKNQVSLSCAVKGFYPSDIAVEWESNGQPENNYKTTPPVLDSDGSFFLVSKLTVDKSRWQQGNVFSCSVMHEALHNHYTQKSLSLSPDYKDDDDK
chain: EPKSSDKTHTCPPCPAPELLGGPSVFLFPPKPKDTLMISRTPEVTCVVVDVSHEDPEVKFNWYVDGVEVHNAKTKPREEQYNSTYRVVSVLTVLHQDWLNGKEYKCKVSNKALPAPIEKTISKAKGQPREPQVCTLPPSRDELTKNQVSLWCLVKGFYPSDIAVEWESNGQPENNYKTTPPVLDSDGSFFLYSKLTVDKSRWQQGNVFSCSVMHEALHNRYTQKSLSLSP
light: DIVMTQSPLSLPVTPGEPASISCRSSQSLVHSNRNTYLHWYQQKPGQAPRLLIYKVSNRFSGVPDRFSGSGSGTDFTLKISRVEAEDVGVYYCGQGTQVPYTFGQGTKLEIKRTVAAPSVFIFPPSDEQLKSGTASVVCLLNNFYPREAKVQWKVDNALQSGNSQESVTEQDSKDSTYSLSSTLTLSKADYEKHKVYACEVTHQGLSSPVTKSFNRGEC
notes: one-arm antibody
B3: CE115HA000 Y59E one-arm antibody (antibody, human IgG1, kappa, L234A L235A, N297A, name in Kabat numbering)
heavy: QVQLVESGGGVVQPGRSLRLSCAASGFTFSNAWMHWVRQAPGKGLEWVAQIKAKSNNYATYEAESVKGRFTISRDDSKNSLYLQMNSLKTEDTAVYYCRYVHYGAYYGVDAWGQGTTVTVSSASTKGPSVFPLAPSSKSTSGGTAALGCLVKDYFPEPVTVSWNSGALTSGVHTFPAVLQSSGLYSLSSVVTVPSSSLGTQTYICNVNHKPSNTKVDKKVEPKSCDKTHTCPPCPAPEAAGGPSVFLFPPKPKDTLMISRTPEVTCVVVDVSHEDPEVKFNWYVDGVEVHNAKTKPREEQYASTYRVVSVLTVLHQDWLNGKEYKCKVSNKALPAPIEKTISKAKGQPREPQVYTLPPSRCELTKNQVSLSCAVKGFYPSDIAVEWESNGQPENNYKTTPPVLDSDGSFFLVSKLTVDKSRWQQGNVFSCSVMHEALHNHYTQKSLSLSPDYKDDDDK
chain: EPKSSDKTHTCPPCPAPELLGGPSVFLFPPKPKDTLMISRTPEVTCVVVDVSHEDPEVKFNWYVDGVEVHNAKTKPREEQYNSTYRVVSVLTVLHQDWLNGKEYKCKVSNKALPAPIEKTISKAKGQPREPQVCTLPPSRDELTKNQVSLWCLVKGFYPSDIAVEWESNGQPENNYKTTPPVLDSDGSFFLYSKLTVDKSRWQQGNVFSCSVMHEALHNRYTQKSLSLSP
light: DIVMTQSPLSLPVTPGEPASISCRSSQSLVHSNRNTYLHWYQQKPGQAPRLLIYKVSNRFSGVPDRFSGSGSGTDFTLKISRVEAEDVGVYYCGQGTQVPYTFGQGTKLEIKRTVAAPSVFIFPPSDEQLKSGTASVVCLLNNFYPREAKVQWKVDNALQSGNSQESVTEQDSKDSTYSLSSTLTLSKADYEKHKVYACEVTHQGLSSPVTKSFNRGEC
notes: one-arm antibody
B4: CE115HA000 Y58D one-arm antibody (antibody, human IgG1, kappa, L234A L235A, N297A, name in Kabat numbering)
heavy: QVQLVESGGGVVQPGRSLRLSCAASGFTFSNAWMHWVRQAPGKGLEWVAQIKAKSNNYATDYAESVKGRFTISRDDSKNSLYLQMNSLKTEDTAVYYCRYVHYGAYYGVDAWGQGTTVTVSSASTKGPSVFPLAPSSKSTSGGTAALGCLVKDYFPEPVTVSWNSGALTSGVHTFPAVLQSSGLYSLSSVVTVPSSSLGTQTYICNVNHKPSNTKVDKKVEPKSCDKTHTCPPCPAPEAAGGPSVFLFPPKPKDTLMISRTPEVTCVVVDVSHEDPEVKFNWYVDGVEVHNAKTKPREEQYASTYRVVSVLTVLHQDWLNGKEYKCKVSNKALPAPIEKTISKAKGQPREPQVYTLPPSRCELTKNQVSLSCAVKGFYPSDIAVEWESNGQPENNYKTTPPVLDSDGSFFLVSKLTVDKSRWQQGNVFSCSVMHEALHNHYTQKSLSLSPDYKDDDDK
chain: EPKSSDKTHTCPPCPAPELLGGPSVFLFPPKPKDTLMISRTPEVTCVVVDVSHEDPEVKFNWYVDGVEVHNAKTKPREEQYNSTYRVVSVLTVLHQDWLNGKEYKCKVSNKALPAPIEKTISKAKGQPREPQVCTLPPSRDELTKNQVSLWCLVKGFYPSDIAVEWESNGQPENNYKTTPPVLDSDGSFFLYSKLTVDKSRWQQGNVFSCSVMHEALHNRYTQKSLSLSP
light: DIVMTQSPLSLPVTPGEPASISCRSSQSLVHSNRNTYLHWYQQKPGQAPRLLIYKVSNRFSGVPDRFSGSGSGTDFTLKISRVEAEDVGVYYCGQGTQVPYTFGQGTKLEIKRTVAAPSVFIFPPSDEQLKSGTASVVCLLNNFYPREAKVQWKVDNALQSGNSQESVTEQDSKDSTYSLSSTLTLSKADYEKHKVYACEVTHQGLSSPVTKSFNRGEC
notes: one-arm antibody
B5: CE115HA000 Y59A one-arm antibody (antibody, human IgG1, kappa, L234A L235A, N297A, name in Kabat numbering)
heavy: QVQLVESGGGVVQPGRSLRLSCAASGFTFSNAWMHWVRQAPGKGLEWVAQIKAKSNNYATYAAESVKGRFTISRDDSKNSLYLQMNSLKTEDTAVYYCRYVHYGAYYGVDAWGQGTTVTVSSASTKGPSVFPLAPSSKSTSGGTAALGCLVKDYFPEPVTVSWNSGALTSGVHTFPAVLQSSGLYSLSSVVTVPSSSLGTQTYICNVNHKPSNTKVDKKVEPKSCDKTHTCPPCPAPEAAGGPSVFLFPPKPKDTLMISRTPEVTCVVVDVSHEDPEVKFNWYVDGVEVHNAKTKPREEQYASTYRVVSVLTVLHQDWLNGKEYKCKVSNKALPAPIEKTISKAKGQPREPQVYTLPPSRCELTKNQVSLSCAVKGFYPSDIAVEWESNGQPENNYKTTPPVLDSDGSFFLVSKLTVDKSRWQQGNVFSCSVMHEALHNHYTQKSLSLSPDYKDDDDK
chain: EPKSSDKTHTCPPCPAPELLGGPSVFLFPPKPKDTLMISRTPEVTCVVVDVSHEDPEVKFNWYVDGVEVHNAKTKPREEQYNSTYRVVSVLTVLHQDWLNGKEYKCKVSNKALPAPIEKTISKAKGQPREPQVCTLPPSRDELTKNQVSLWCLVKGFYPSDIAVEWESNGQPENNYKTTPPVLDSDGSFFLYSKLTVDKSRWQQGNVFSCSVMHEALHNRYTQKSLSLSP
light: DIVMTQSPLSLPVTPGEPASISCRSSQSLVHSNRNTYLHWYQQKPGQAPRLLIYKVSNRFSGVPDRFSGSGSGTDFTLKISRVEAEDVGVYYCGQGTQVPYTFGQGTKLEIKRTVAAPSVFIFPPSDEQLKSGTASVVCLLNNFYPREAKVQWKVDNALQSGNSQESVTEQDSKDSTYSLSSTLTLSKADYEKHKVYACEVTHQGLSSPVTKSFNRGEC
notes: one-arm antibody
B6: CE115HA000 Y58K one-arm antibody (antibody, human IgG1, kappa, L234A L235A, N297A, name in Kabat numbering)
heavy: QVQLVESGGGVVQPGRSLRLSCAASGFTFSNAWMHWVRQAPGKGLEWVAQIKAKSNNYATKYAESVKGRFTISRDDSKNSLYLQMNSLKTEDTAVYYCRYVHYGAYYGVDAWGQGTTVTVSSASTKGPSVFPLAPSSKSTSGGTAALGCLVKDYFPEPVTVSWNSGALTSGVHTFPAVLQSSGLYSLSSVVTVPSSSLGTQTYICNVNHKPSNTKVDKKVEPKSCDKTHTCPPCPAPEAAGGPSVFLFPPKPKDTLMISRTPEVTCVVVDVSHEDPEVKFNWYVDGVEVHNAKTKPREEQYASTYRVVSVLTVLHQDWLNGKEYKCKVSNKALPAPIEKTISKAKGQPREPQVYTLPPSRCELTKNQVSLSCAVKGFYPSDIAVEWESNGQPENNYKTTPPVLDSDGSFFLVSKLTVDKSRWQQGNVFSCSVMHEALHNHYTQKSLSLSPDYKDDDDK
chain: EPKSSDKTHTCPPCPAPELLGGPSVFLFPPKPKDTLMISRTPEVTCVVVDVSHEDPEVKFNWYVDGVEVHNAKTKPREEQYNSTYRVVSVLTVLHQDWLNGKEYKCKVSNKALPAPIEKTISKAKGQPREPQVCTLPPSRDELTKNQVSLWCLVKGFYPSDIAVEWESNGQPENNYKTTPPVLDSDGSFFLYSKLTVDKSRWQQGNVFSCSVMHEALHNRYTQKSLSLSP
light: DIVMTQSPLSLPVTPGEPASISCRSSQSLVHSNRNTYLHWYQQKPGQAPRLLIYKVSNRFSGVPDRFSGSGSGTDFTLKISRVEAEDVGVYYCGQGTQVPYTFGQGTKLEIKRTVAAPSVFIFPPSDEQLKSGTASVVCLLNNFYPREAKVQWKVDNALQSGNSQESVTEQDSKDSTYSLSSTLTLSKADYEKHKVYACEVTHQGLSSPVTKSFNRGEC
notes: one-arm antibody

Each binder was assayed against T1, CD3 epsilon homodimer protein (UniProt P07766 23-126) (assay: SPR Biacore T200, antibody over immobilised CD3e homodimer;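 further: CD3 epsilon homodimer amine-coupled on a CM4 chip, run at 25 °C in HBS-EP+, Z = bound amount of each single-residue H chain variant over that of the parent antibody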).
T1 construct: also called CD3 (CD3 epsilon)
T1 sequence (P07766 23-126): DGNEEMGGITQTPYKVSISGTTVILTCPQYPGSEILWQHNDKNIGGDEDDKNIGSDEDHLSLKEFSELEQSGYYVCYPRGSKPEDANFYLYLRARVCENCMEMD
Description: An appropriate amount of CD3 epsilon homodimer protein was immobilized onto Sensor chip CM4 (GE Healthcare Japan Corp.) by the amine coupling method. Then, the antibody having an appropriate concentration was injected thereto as an analyte and allowed to interact with the CD3 epsilon homodimer protein on the sensor chip. Then, the sensor chip was regenerated by the injection of 10 mmol/L glycine-HCl (pH 1.5). The assay was conducted at 25 degrees C., and HBS-EP+(GE Healthcare Japan Corp.) was used as a running buffer. […] Each parameter was calculated using Biacore T200 Evaluation Software (GE Healthcare Japan Corp.).
Specifically, when the amount of the antibody comprising CE115HA000 bound was defined as X and the amount of the H chain one-amino acid altered form bound was defined as Y, a value of Z (ratio of amounts bound)=Y/X was used.
For B1, the “ratio of amounts bound (Z=Y/X vs CE115HA000)” value (“ratio of amounts bound” below) was 0.22.
In the case of B2, the “ratio of amounts bound” value is reported as 0.7.
With B3 the “ratio of amounts bound” value was 0.66.
For B4, the “ratio of amounts bound” value was 0.11.
With B5 the “ratio of amounts bound” value was 0.85.
In the case of B6, the “ratio of amounts bound” value is reported as 0.3.
